# Results taken from patent publication US20260242735A1 (UNIVERSIT T BASEL, published 2026).
# B1: Refmab #2 (antibody, V domains shown)
# VH: QVQLVQSGAEVKKPGSSVKVSCKASGGTFSDYAISWVRQAPGQGLEWMGRIIPILGVADYAQKFQGRVTITADKSTRTAYMELSSLRSEDTAVYYCARNWADAFDIWGQGTMVTVSS
# VL: DIQLTQSPSSLSASVGDRVTITCRASQGISSVLAWYQQKPGKAPKLLIYDASSLESGVPSRFSGSGSGTDFTLTISSLQPEDFATYYCQQFDSSITFGQGTKLEIK
# notes: The alanine scan used IgG or Fab
# B2: Refmab #1 (antibody, V domains shown)
# VH: EVQLVQSGAEVKKPGSSVKVSCKASGYTITDSNIHWVRQAPGQSLEWIGYIYPYNGGTDYNQKFKNRATLTVDNPTNTAYMELSSLRSEDTAFYYCVNGNPWLAYWGQGTLVTVSS
# VL: DIQLTQSPSTLSASVGDRVTITCRASESLDNYGIRFLTWFQQKPGKAPKLLMYAASNQGSGVPSRFSGSGSGTEFTLTISSLQPDDFATYYCQQTKEVPWSFGQGTKVEVK
# notes: The alanine scan used IgG or Fab; also called hP67.6
# B3: Refmab #4 (antibody, V domains shown)
# VH: QVQLVQSGAEVKKPGESVKVSCKASGYTFTNYGMNWVKQAPGQGLEWMGWINTYTGEPTYADKFQGRVTMTTDTSTSTAYMEIRNLGGDDTAVYYCARWSWSDGYYVYFDYWGQGTSVTVSS
# VL: DIVMTQSPDSLTVSLGERTTINCKSSQSVLDSSTNKNSLAWYQQKPGQPPKLLLSWASTRESGIPDRFSGSGSGTDFTLTIDSPQPEDSATYYCQQSAHFPITFGQGTRLEIK
# notes: as for B1
# B4: Refmab #3 (antibody, V domains shown)
# VH: QVQLVQSGAEVKKPGSSVKVSCKASGYTFTDYNMHWVRQAPGQGLEWIGYIYPYNGGTGYNQKFKSKATITADESTNTAYMELSSLRSEDTAVYYCARGRPAMDYWGQGTLVTVSS
# VL: DIQMTQSPSSLSASVGDRVTITCRASESVDNYGISFMNWFQQKPGKAPKLLIYAASNQGSGVPSRFSGSGSGTDFTLTISSLQPDDFATYYCQQSKEVPWTFGQGTKVEIK
# notes: as for B1
# Target: human CD33 C101A (human, UniProt P20138 18-364)
# Sequence (P20138 18-364 C101A limits assumed): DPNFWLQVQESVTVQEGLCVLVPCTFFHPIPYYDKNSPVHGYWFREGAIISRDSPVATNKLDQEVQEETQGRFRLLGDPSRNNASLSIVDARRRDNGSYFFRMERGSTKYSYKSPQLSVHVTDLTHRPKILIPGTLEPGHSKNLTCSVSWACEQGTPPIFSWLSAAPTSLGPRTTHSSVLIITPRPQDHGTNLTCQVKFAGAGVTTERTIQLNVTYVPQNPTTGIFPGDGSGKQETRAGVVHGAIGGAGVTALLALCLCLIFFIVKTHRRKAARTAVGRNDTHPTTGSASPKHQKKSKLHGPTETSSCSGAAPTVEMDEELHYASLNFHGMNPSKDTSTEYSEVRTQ
# Assay: flow cytometry on HEK293-T, alanine scan
# Method: (§1) An alanine scan on human CD33 was performed to the determine the residues on CD33 that are involved in binding to the antibodies investigated. […] Briefly, a mutation library of CD33 was created by high-throughput, site-directed mutagenesis. Each residue was individually mutated to alanine, with alanine codons mutated to serine. The mutant library was arrayed in 384-well microplates and transiently transfected into HEK293-T. Following transfection, cells were incubated with the indicated antibodies (IgG or Fab) at concentrations pre-determined using an independent immunofluorescence titration curve on wild type CD33. […] Binding of each antibody to each mutant clone was determined in duplicates. For each point, background fluorescence was subtracted from the raw data, which were then normalized to antibody reactivity with wild type CD33.
# (§2) Critical residues for antibody binding (outlined in dark grey) were residues whose mutations led to a binding of the test Abs of less than 20%. Additional secondary residues (outlined in light grey) were identified that led to a binding of the test Abs of between 20 and 40% as compared to the wild type CD33.
row,Binder,Mean % WT Binding [% WT binding]
1,B1,0.6
2,B2,1.1
3,B3,1.5

# Target: human CD33 L103A (human, UniProt P20138 18-364)
# Sequence (P20138 18-364 L103A limits assumed): as the sequence (P20138 18-364 C101A limits assumed) above, with A84C, L86A counted along it
# Assay: flow cytometry on HEK293-T, alanine scan
# Method: as §1, §2
row,Binder,Mean % WT Binding [% WT binding]
1,B1,110
2,B2,96.3
3,B3,85.9
4,B4,113

# Target: human CD33 S104A (human, UniProt P20138 18-364)
# Sequence (P20138 18-364 S104A limits assumed): as the sequence (P20138 18-364 C101A limits assumed) above, with A84C, S87A counted along it
# Assay: flow cytometry on HEK293-T, alanine scan
# Method: as §1, §2
row,Binder,Mean % WT Binding [% WT binding]
1,B1,109
2,B2,89
3,B3,86.4
4,B4,102

# Target: human CD33 I105A (human, UniProt P20138 18-364)
# Sequence (P20138 18-364 I105A limits assumed): as the sequence (P20138 18-364 C101A limits assumed) above, with A84C, I88A counted along it
# Assay: flow cytometry on HEK293-T, alanine scan
# Method: as §1, §2
row,Binder,Mean % WT Binding [% WT binding]
1,B1,43.7
2,B2,31.5
3,B3,21.6
4,B4,64.7

# Target: human CD33 D107A (human, UniProt P20138 18-364)
# Sequence (P20138 18-364 D107A limits assumed): as the sequence (P20138 18-364 C101A limits assumed) above, with A84C, D90A counted along it
# Assay: flow cytometry on HEK293-T, alanine scan
# Method: as §1, §2
row,Binder,Mean % WT Binding [% WT binding]
1,B1,109
2,B2,87.7
3,B3,93
4,B4,92.5

# Target: human CD33 A108S (human, UniProt P20138 18-364)
# Sequence (P20138 18-364 A108S limits assumed): as the sequence (P20138 18-364 C101A limits assumed) above, with A84C, A91S counted along it
# Assay: flow cytometry on HEK293-T, alanine scan
# Method: as §1, §2
row,Binder,Mean % WT Binding [% WT binding]
1,B1,104
2,B2,85.3
3,B3,86.5
4,B4,98

# Target: human CD33 R110A (human, UniProt P20138 18-364)
# Sequence (P20138 18-364 R110A limits assumed): as the sequence (P20138 18-364 C101A limits assumed) above, with A84C, R93A counted along it
# Assay: flow cytometry on HEK293-T, alanine scan
# Method: as §1, §2
row,Binder,Mean % WT Binding [% WT binding]
1,B1,109
2,B2,94.9
3,B3,88.4
4,B4,99.1

# Target: human CD33 N113A (human, UniProt P20138 18-364)
# Sequence (P20138 18-364 N113A limits assumed): as the sequence (P20138 18-364 C101A limits assumed) above, with A84C, N96A counted along it
# Assay: flow cytometry on HEK293-T, alanine scan
# Method: as §1, §2
row,Binder,Mean % WT Binding [% WT binding]
1,B1,91
2,B2,96
3,B3,45.1
4,B4,81.4

# Target: human CD33 G114A (human, UniProt P20138 18-364)
# Sequence (P20138 18-364 G114A limits assumed): as the sequence (P20138 18-364 C101A limits assumed) above, with A84C, G97A counted along it
# Assay: flow cytometry on HEK293-T, alanine scan
# Method: as §1, §2
row,Binder,Mean % WT Binding [% WT binding]
1,B1,116
2,B2,96.9
3,B3,110
4,B4,92.6

# Target: human CD33 Y116A (human, UniProt P20138 18-364)
# Sequence (P20138 18-364 Y116A limits assumed): as the sequence (P20138 18-364 C101A limits assumed) above, with A84C, Y99A counted along it
# Assay: flow cytometry on HEK293-T, alanine scan
# Method: as §1, §2
row,Binder,Mean % WT Binding [% WT binding]
1,B1,0.7
2,B2,0.9
3,B3,5.4
4,B4,5.3

# Target: human CD33 M120A (human, UniProt P20138 18-364)
# Sequence (P20138 18-364 M120A limits assumed): as the sequence (P20138 18-364 C101A limits assumed) above, with A84C, M103A counted along it
# Assay: flow cytometry on HEK293-T, alanine scan
# Method: as §1, §2
row,Binder,Mean % WT Binding [% WT binding]
1,B1,70.7
2,B2,79.8
3,B3,96.8

# Target: human CD33 R122A (human, UniProt P20138 18-364)
# Sequence (P20138 18-364 R122A limits assumed): as the sequence (P20138 18-364 C101A limits assumed) above, with A84C, R105A counted along it
# Assay: flow cytometry on HEK293-T, alanine scan
# Method: as §1, §2
row,Binder,Mean % WT Binding [% WT binding]
1,B1,3.6
2,B2,107
3,B3,23
4,B4,177

# Target: human CD33 G123A (human, UniProt P20138 18-364)
# Sequence (P20138 18-364 G123A limits assumed): as the sequence (P20138 18-364 C101A limits assumed) above, with A84C, G106A counted along it
# Assay: flow cytometry on HEK293-T, alanine scan
# Method: as §1, §2
row,Binder,Mean % WT Binding [% WT binding]
1,B1,82
2,B2,107
3,B3,97.9
4,B4,292

# Target: human CD33 Y129A (human, UniProt P20138 18-364)
# Sequence (P20138 18-364 Y129A limits assumed): as the sequence (P20138 18-364 C101A limits assumed) above, with A84C, Y112A counted along it
# Assay: flow cytometry on HEK293-T, alanine scan
# Method: as §1, §2
row,Binder,Mean % WT Binding [% WT binding]
1,B1,137
2,B2,53.2
3,B3,319

# Target: human CD33 S131A (human, UniProt P20138 18-364)
# Sequence (P20138 18-364 S131A limits assumed): as the sequence (P20138 18-364 C101A limits assumed) above, with A84C, S114A counted along it
# Assay: flow cytometry on HEK293-T, alanine scan
# Method: as §1, §2
row,Binder,Mean % WT Binding [% WT binding]
1,B1,123
2,B2,85.9
3,B3,134
4,B4,117

# Target: human CD33 Q133A (human, UniProt P20138 18-364)
# Sequence (P20138 18-364 Q133A limits assumed): as the sequence (P20138 18-364 C101A limits assumed) above, with A84C, Q116A counted along it
# Assay: flow cytometry on HEK293-T, alanine scan
# Method: as §1, §2
row,Binder,Mean % WT Binding [% WT binding]
1,B1,131
2,B2,95.6
3,B3,96
4,B4,101

# Target: human CD33 L134A (human, UniProt P20138 18-364)
# Sequence (P20138 18-364 L134A limits assumed): as the sequence (P20138 18-364 C101A limits assumed) above, with A84C, L117A counted along it
# Assay: flow cytometry on HEK293-T, alanine scan
# Method: as §1, §2
row,Binder,Mean % WT Binding [% WT binding]
1,B1,99.6
2,B2,95.4
3,B3,82.2
4,B4,81.4

# Target: human CD33 S135A (human, UniProt P20138 18-364)
# Sequence (P20138 18-364 S135A limits assumed): as the sequence (P20138 18-364 C101A limits assumed) above, with A84C, S118A counted along it
# Assay: flow cytometry on HEK293-T, alanine scan
# Method: as §1, §2
row,Binder,Mean % WT Binding [% WT binding]
1,B1,120
2,B2,98.6
3,B3,109
4,B4,107

# Target: human CD33 V138A (human, UniProt P20138 18-364)
# Sequence (P20138 18-364 V138A limits assumed): as the sequence (P20138 18-364 C101A limits assumed) above, with A84C, V121A counted along it
# Assay: flow cytometry on HEK293-T, alanine scan
# Method: as §1, §2
row,Binder,Mean % WT Binding [% WT binding]
1,B1,98.5
2,B2,72.3
3,B4,129

# Target: human CD33 T139A (human, UniProt P20138 18-364)
# Sequence (P20138 18-364 T139A limits assumed): as the sequence (P20138 18-364 C101A limits assumed) above, with A84C, T122A counted along it
# Assay: flow cytometry on HEK293-T, alanine scan
# Method: as §1, §2
row,Binder,Mean % WT Binding [% WT binding]
1,B1,123
2,B2,89.9
3,B3,84.3
4,B4,143

# Target: human CD33 D140A (human, UniProt P20138 18-364)
# Sequence (P20138 18-364 D140A limits assumed): as the sequence (P20138 18-364 C101A limits assumed) above, with A84C, D123A counted along it
# Assay: flow cytometry on HEK293-T, alanine scan
# Method: as §1, §2
row,Binder,Mean % WT Binding [% WT binding]
1,B1,109
2,B2,88.7
3,B3,96.1
4,B4,119

# Target: human CD33 L141A (human, UniProt P20138 18-364)
# Sequence (P20138 18-364 L141A limits assumed): as the sequence (P20138 18-364 C101A limits assumed) above, with A84C, L124A counted along it
# Assay: flow cytometry on HEK293-T, alanine scan
# Method: as §1, §2
row,Binder,Mean % WT Binding [% WT binding]
1,B1,113
2,B2,103
3,B3,93.7
4,B4,153

# Target: human CD33 T142A (human, UniProt P20138 18-364)
# Sequence (P20138 18-364 T142A limits assumed): as the sequence (P20138 18-364 C101A limits assumed) above, with A84C, T125A counted along it
# Assay: flow cytometry on HEK293-T, alanine scan
# Method: as §1, §2
row,Binder,Mean % WT Binding [% WT binding]
1,B1,104
2,B2,85.1
3,B3,88.8
4,B4,133

# Target: human CD33 H143A (human, UniProt P20138 18-364)
# Sequence (P20138 18-364 H143A limits assumed): as the sequence (P20138 18-364 C101A limits assumed) above, with A84C, H126A counted along it
# Assay: flow cytometry on HEK293-T, alanine scan
# Method: as §1, §2
row,Binder,Mean % WT Binding [% WT binding]
1,B1,104
2,B2,88.8
3,B3,106
4,B4,97.9

# Target: human CD33 R144A (human, UniProt P20138 18-364)
# Sequence (P20138 18-364 R144A limits assumed): as the sequence (P20138 18-364 C101A limits assumed) above, with A84C, R127A counted along it
# Assay: flow cytometry on HEK293-T, alanine scan
# Method: as §1, §2
row,Binder,Mean % WT Binding [% WT binding]
1,B1,112
2,B2,110
3,B3,99.7
4,B4,112

# Target: human CD33 P145A (human, UniProt P20138 18-364)
# Sequence (P20138 18-364 P145A limits assumed): as the sequence (P20138 18-364 C101A limits assumed) above, with A84C, P128A counted along it
# Assay: flow cytometry on HEK293-T, alanine scan
# Method: as §1, §2
row,Binder,Mean % WT Binding [% WT binding]
1,B1,105
2,B2,89.3
3,B3,78.8
4,B4,75.2

# Target: human CD33 G94A (human, UniProt P20138 18-364)
# Sequence (P20138 18-364 G94A limits assumed): as the sequence (P20138 18-364 C101A limits assumed) above, with G77A, A84C counted along it
# Assay: flow cytometry on HEK293-T, alanine scan
# Method: as §1, §2
row,Binder,Mean % WT Binding [% WT binding]
1,B1,108
2,B2,88.3
3,B3,59
4,B4,115

# Target: human CD33 P150A (human, UniProt P20138 18-364)
# Sequence (P20138 18-364 P150A limits assumed): as the sequence (P20138 18-364 C101A limits assumed) above, with A84C, P133A counted along it
# Assay: flow cytometry on HEK293-T, alanine scan
# Method: as §1, §2
row,Binder,Mean % WT Binding [% WT binding]
1,B1,112
2,B2,78.4
3,B3,103
4,B4,102

# Target: human CD33 G151A (human, UniProt P20138 18-364)
# Sequence (P20138 18-364 G151A limits assumed): as the sequence (P20138 18-364 C101A limits assumed) above, with A84C, G134A counted along it
# Assay: flow cytometry on HEK293-T, alanine scan
# Method: as §1, §2
row,Binder,Mean % WT Binding [% WT binding]
1,B1,132
2,B2,81.1
3,B3,101
4,B4,108

# Target: human CD33 L153A (human, UniProt P20138 18-364)
# Sequence (P20138 18-364 L153A limits assumed): as the sequence (P20138 18-364 C101A limits assumed) above, with A84C, L136A counted along it
# Assay: flow cytometry on HEK293-T, alanine scan
# Method: as §1, §2
row,Binder,Mean % WT Binding [% WT binding]
1,B1,121
2,B2,75.7
3,B3,92.5
4,B4,144

# Target: human CD33 H157A (human, UniProt P20138 18-364)
# Sequence (P20138 18-364 H157A limits assumed): as the sequence (P20138 18-364 C101A limits assumed) above, with A84C, H140A counted along it
# Assay: flow cytometry on HEK293-T, alanine scan
# Method: as §1, §2
row,Binder,Mean % WT Binding [% WT binding]
1,B1,115
2,B2,86.6
3,B3,97.4
4,B4,138

# Target: human CD33 D95A (human, UniProt P20138 18-364)
# Sequence (P20138 18-364 D95A limits assumed): as the sequence (P20138 18-364 C101A limits assumed) above, with D78A, A84C counted along it
# Assay: flow cytometry on HEK293-T, alanine scan
# Method: as §1, §2
row,Binder,Mean % WT Binding [% WT binding]
1,B1,110
2,B2,80.5
3,B3,90.9
4,B4,103

# Target: human CD33 K159A (human, UniProt P20138 18-364)
# Sequence (P20138 18-364 K159A limits assumed): as the sequence (P20138 18-364 C101A limits assumed) above, with A84C, K142A counted along it
# Assay: flow cytometry on HEK293-T, alanine scan
# Method: as §1, §2
row,Binder,Mean % WT Binding [% WT binding]
1,B1,134
2,B2,119
3,B3,118
4,B4,110

# Target: human CD33 N160A (human, UniProt P20138 18-364)
# Sequence (P20138 18-364 N160A limits assumed): as the sequence (P20138 18-364 C101A limits assumed) above, with A84C, N143A counted along it
# Assay: flow cytometry on HEK293-T, alanine scan
# Method: as §1, §2
row,Binder,Mean % WT Binding [% WT binding]
1,B1,107
2,B2,82.3
3,B3,102
4,B4,99.3

# Target: human CD33 T162A (human, UniProt P20138 18-364)
# Sequence (P20138 18-364 T162A limits assumed): as the sequence (P20138 18-364 C101A limits assumed) above, with A84C, T145A counted along it
# Assay: flow cytometry on HEK293-T, alanine scan
# Method: as §1, §2
row,Binder,Mean % WT Binding [% WT binding]
1,B1,102
2,B2,86.9
3,B3,79.9
4,B4,109

# Target: human CD33 V165A (human, UniProt P20138 18-364)
# Sequence (P20138 18-364 V165A limits assumed): as the sequence (P20138 18-364 C101A limits assumed) above, with A84C, V148A counted along it
# Assay: flow cytometry on HEK293-T, alanine scan
# Method: as §1, §2
row,Binder,Mean % WT Binding [% WT binding]
1,B1,124
2,B2,91.6
3,B3,117
4,B4,116
